Data published in patent US20030232756A1, “Ligands for G protein coupled receptor GPR7 and GPR8 and uses thereof” (Euroscreen, S.A., priority 2002, published 2003).

How the values were obtained:
[1] = biological target: T1, human GPR8 (Homo sapiens, UniProt P48146); test: Aequorin-based functional assay, WTA11 cells expressing GPR8; type: cell-based; settings: in words
T1 construct: expressed in transfected cells; host or cells: CHO-K1 clone WTA11 (apoaequorin + Galpha16)
Description: (§1) In the experiments described in this section, the aequorin assay measured functional responses by recording the luminescence of aequorin in GPR7- and GPR8-expressing cells following addition of (potential) agonists, as previously described (Kotani, M. et al.). In brief, cells were collected from plates with PBS containing 5 mM EDTA, pelleted, resuspended at 5×10^6 cells/ml in DMEM-F12 medium containing 0.1% BSA, incubated with 5 μM coelenterazine H (Molecular Probes, Eugene, Oreg.) for 4 h at room temperature, and diluted in DMEM-F12 medium at a concentration of 5×10^5 cells/ml. Cells where then mixed with the ligands, and the light emission was recorded over 30 s using a Microlumat™ luminometer (Perkin Elmer, Norwalk, Conn.).

[2] = biological target: T2, human GPR7 (Homo sapiens, UniProt P48145); test: Aequorin-based functional assay, WTA11 cells expressing GPR7; type: cell-based; settings: in words
T2 construct: expressed in transfected cells; host or cells: CHO-K1 clone WTA11 (mitochondrial apoaequorin + Galpha16)
T2 sequence (P48145 1-328): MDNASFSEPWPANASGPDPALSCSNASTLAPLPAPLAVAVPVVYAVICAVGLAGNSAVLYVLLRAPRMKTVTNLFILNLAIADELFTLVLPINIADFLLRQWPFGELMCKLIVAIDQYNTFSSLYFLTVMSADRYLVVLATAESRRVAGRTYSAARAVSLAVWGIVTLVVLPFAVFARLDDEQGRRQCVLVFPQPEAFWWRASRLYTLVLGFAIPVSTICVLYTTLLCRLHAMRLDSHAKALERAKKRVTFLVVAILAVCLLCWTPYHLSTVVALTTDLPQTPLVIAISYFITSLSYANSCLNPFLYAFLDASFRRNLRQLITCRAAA
Description: CHO—K1 cells (ATCC CRL-9618 (Bethesda, Md., USA)) were previously transfected with a plasmid encoding mitochondrial apoaequorin and Gα16. A clone obtained by limit dilution, called WTA11, was grown in Nutrient Mixture HAM's F12 medium supplemented with 10% fetal calf serum, 250 μg/ml zeocin, 100 units/ml penicillin and 100 μg/ml streptomycin. A bicistronic plasmid encoding the human GPR7 was transfected into WTA11 CHO—K1 cells, using Fugene 6 (Roche Diagnostics, Mannheim, Germany). Individual clones were selected two days after transfection with 400 μg/ml neomycin and GPR7-positive clones were confirmed by northern blotting, RT-PCR and sequencing.
Functional responses were analysed by recording the luminescence of aequorin following the addition of the ligand. In brief, cells were collected from plates with PBS containing 5 mM EDTA, pelleted, and resuspended at 10^7 cells/ml in DMEM-F12 medium and incubated with 5 μM coelenterainze H (Molecular Porbes) for 4 h at room temperature. Cells were then washed in DMEM-F12 medium and resuspended at a concentration of 2×10^6 cells/ml. Cells where then mixed with the ligand, and the light emission was recorded over 60 s using a Microlumat™ luminometer (Perkin Elmer). Results are expressed as relative light units (RLU) (FIG. 5).
as §1

T1 sequence (P48146 whole entry): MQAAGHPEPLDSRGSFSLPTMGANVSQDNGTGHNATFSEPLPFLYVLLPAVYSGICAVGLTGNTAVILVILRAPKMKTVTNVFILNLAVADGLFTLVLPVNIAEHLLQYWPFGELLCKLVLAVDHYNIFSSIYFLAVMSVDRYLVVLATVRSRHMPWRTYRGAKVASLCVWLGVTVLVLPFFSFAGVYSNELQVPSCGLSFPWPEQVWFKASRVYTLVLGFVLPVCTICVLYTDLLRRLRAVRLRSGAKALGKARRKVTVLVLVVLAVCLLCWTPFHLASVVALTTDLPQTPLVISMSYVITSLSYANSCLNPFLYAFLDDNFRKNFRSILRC

Row | Substance | activity in aequorin-based functional assay on GPR8 [1] | activity in aequorin-based functional assay on GPR7 [2]
1 | SPYA (PYAR; UniProt Q8NG41 51-54, looked up, fragment) [pro-L7 [51-54], human peptide derived from the L7 precursor] | inactive | inactive
2 | SPYLW (UniProt Q8N729 58-62, looked up, fragment) [pro-L8 [58-62], human peptide derived from the L8 precursor] | inactive | inactive
3 | WYKPAAGHSSYSVGRAAGLL [pro-L7 [25-44], human peptide derived from the L7 precursor] | active | active
